Sequences and labels used below:
B1: Tim17 with an affinity tag, overexpressed (natural protein)
chain: MSADHSRDPCPIVILNDFGGAFAMGAIGGVVWHGIKGFRNSPLGERGSGAMSAIKARAPVLGGNFGVWGGLFSTFDCAVKAVRKREDPWNAIIAGFFTGGALAVRGGWRHTRNSSITCACLLGVIEGVGLMFQRYAAWQAKPMAPPLPEAPSSQPLQA
modifications: disulfide bond between Cys10 and Cys77
B2: Tim23, overexpressed (natural protein)
chain: MSWLFGDKTPTDDANAAVGGQDTTKPKELSLKQSLGFEPNINNIISGPGGMHVDTARLHPLAGLDKGVEYLDLEEEQLSSLEGSQGLIPSRGWTDDLCYGTGAVYLLGLGIGGFSGMMQGLQNIPPNSPGKLQLNTVLNHITKRGPFLGNNAGILALSYNIINSTIDALRGKHDTAGSIGAGALTGALFKSSKGLKPMGYSSAMVAAACAVWCSVKKRLLEK

For test [1], the target named is Tim17 with an affinity tag, overexpressed (S. cerevisiae) (UniProt P39515). Nature of the test: cryo-EM structure.
The target in test [2] is B2. The test is described as follows: cryo-EM structure.
The target of test [3] is B2. The test is described as follows: pull-down.
Test [4] has as its target B1. The test is described as follows: cryo-EM structure.

On to Tim44, overexpressed (natural protein), for which the stoichiometry N in test [1] worked out at 1; in the test with Tim23, overexpressed [2] it was 1.

As to B1, the binding result in the test with Tim23, overexpressed [3] is listed as “binds”.

B2: the “stoichiometry N” value in test [4] worked out at 1.

A word on the stoichiometry N: it is the number of molecules, sites or subunits per partner or assembly.
